{"source": "paper PMC6730670", "target": "Yn-ABHD5 (UniProt Q9DBL9)", "sequence (Q9DBL9 whole entry)": "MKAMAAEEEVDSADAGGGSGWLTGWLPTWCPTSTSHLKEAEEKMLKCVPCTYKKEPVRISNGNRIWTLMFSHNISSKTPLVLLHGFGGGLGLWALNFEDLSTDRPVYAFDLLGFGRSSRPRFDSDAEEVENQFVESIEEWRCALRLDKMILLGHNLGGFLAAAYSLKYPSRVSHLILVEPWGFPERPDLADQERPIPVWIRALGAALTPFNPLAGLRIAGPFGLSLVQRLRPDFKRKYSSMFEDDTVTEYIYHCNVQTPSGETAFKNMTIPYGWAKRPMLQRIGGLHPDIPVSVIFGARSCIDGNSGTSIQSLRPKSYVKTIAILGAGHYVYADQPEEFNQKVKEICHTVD", "assay": "split reporter"}
{"substance": "PNPLA3-Yc (from UniProt Q91WW7 1-413) (natural protein)", "values": [{"measurement": "percent of transfected cells with BiFC", "result": "> 90", "unit": "%"}]}
